The values below come from US20200024639A1.

This test concerns the target HA-NanoLuc-VAMP2 (UniProt P63027). The test is described as follows: cell-based or functional assay.
UniProt P63027, sequence (P63027 1-116, tags or fused parts left off): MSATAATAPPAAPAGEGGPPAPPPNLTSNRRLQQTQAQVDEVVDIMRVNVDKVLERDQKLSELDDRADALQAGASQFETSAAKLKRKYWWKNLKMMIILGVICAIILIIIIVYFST

“botulinum neurotoxin type B (from UniProt P10844 2-1291) (enzyme)”: the cleavage of the reporter in SiMa cells, immunoblot with total VAMP2 antibody worked out at 10 nM.
